Measurements: the supplement of paper PMC12042874
± gives the uncertainty stated by the source.

assay: amyloid nucleation score (Sup35N fusion, yeast selection) (log enrichment); library NNK1; higher = more nucleation; inactive = no reads after selection
Summary of the method: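 For the nucleation score, DiMSum gave the log enrichment of output over input reads, centred on the mode score of non-aggregating sequences. Psi-negative yeast expressing Sup35N fused to peptides of 20 random codons were induced with 100 μM copper sulfate for 24 hours and grown 7 days at 30°C on medium lacking adenine and uracil. Input and output plasmid inserts were Illumina-sequenced, and sequences with under 100 input reads were excluded.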

Row | Substance | amyloid nucleation score
1 | SCPAGFCCAGANKYHVLGV | -0.137 ± 0.56
2 | SCPKVITNVLSSKTYPRMVG | 1.11 ± 0.34
3 | SCRTLANITLCPRSIQF | 0.055 ± 0.65
4 | SCSWFFTYIVVAVNTLSISY | -0.444 ± 0.75
5 | SCTLYYTSGSIMYAVMVLQE | 0.526 ± 0.49
6 | SCTVLWDKFDRLLWCSK | inactive
7 | SCVQRVLSIVNSFGRRSQTR | 0.269 ± 0.43
8 | SCVRCQLS | 7.454 ± 0.05
9 | SCYDVIVRWDFFLQQFCKMQ | 1.73 ± 0.12
10 | SDALPVYVEFREGGKSRGWT | -0.916 ± 1.1
11 | SDDLGE | -0.301 ± 0.39
12 | SDEGLYPYLHLTFKTSTLWK | 0.201 ± 0.66
13 | SDGWCRLRCES | -0.429 ± 0.59
14 | SDLDVRAWQSLVSWIYRFPS | 0.18 ± 0.37
15 | SDMLYLQLVKLASWFHFNLK | -0.199 ± 0.38
16 | SDPYDPRIVVVRIKLLLVME | -0.153 ± 1.4
17 | SDQDTGLHTLPCHTRS | inactive
18 | SDQNWMVPQDGPSPTSYLDD | -0.102 ± 1.5
19 | SDYILCIPWPSGLS | 0.734 ± 0.97
20 | SDYRRPKEPVSS | 3.01 ± 0.16
21 | SEEGGNTASNRVDWYTTGIV | 0.95 ± 0.48
22 | SEEGMCSSMGVD | inactive
23 | SEHRMASRHVNPRPGGKDCR | -1.54 ± 2.7
24 | SEHVIIGRRDFV | -0.018 ± 1
25 | SELFWMVGMGSLSSRYNSPF | 2.37 ± 0.087

Row | Substance | amyloid nucleation score
26 | SELWDLG | -0.197 ± 0.85
27 | SERVMEWGTLKLYDSVHCVL | -1.55 ± 2.7
28 | SEWGSQSSGAGSFTMV | -1.35 ± 2.4
29 | SFALLTQLNEYKTARMKRAG | 0.64 ± 0.35
30 | SFANVGSVGWAMYSGYTSRT | 0.002 ± 0.84
31 | SFAVCGKLDHWCPCSAITLV | 1.08 ± 0.64
32 | SFESYEH | 1.29 ± 0.9
33 | SFFDLSEA | 0.918 ± 1.1
34 | SFFDVLFKITWYNRVLMC | 0.362 ± 0.79
35 | SFIPKVGCKKEPARRASGNV | 0.413 ± 1.4
36 | SFIYTSPGFCWRDMFDWQVP | 0.339 ± 0.32
37 | SFLKVGFL | -0.399 ± 1.1
38 | SFLRGMASWLTQMHGKGWGW | 0.239 ± 0.69
39 | SFLSSGINRSRCY | 0.154 ± 0.32
40 | SFSGYMLDCGEHTQMYSASI | 0.185 ± 0.35
41 | SFSRFVVMMKGIRAGKSSHT | 0.156 ± 0.72
42 | SFVFAVWFW | 0.181 ± 0.83
43 | SFVVHVICGHVCSWSFSVWF | 0.178 ± 0.33
44 | SGAPYS | 0.185 ± 0.34
45 | SGCPDPW | -0.047 ± 1.7
46 | SGEDVSGCQDLFALVPMGQG | 0.495 ± 0.51
47 | SGFAVLKIVMAFHLTLEHQF | 0.479 ± 0.67
48 | SGFIGS | -1.33 ± 1.3
49 | SGKLLISCVYSLENMC | 1.39 ± 0.72
50 | SGMCNIQPQTCQ | -0.351 ± 0.39

Row | Substance | amyloid nucleation score
51 | SGMGMSPLMMIWCRSSNRDL | inactive
52 | SGMSGCPKCGSWGSNKWYLW | -0.004 ± 0.44
53 | SGMYRTNTAMFSFYDTTIVI | -0.091 ± 0.84
54 | SGNCSVSW | 0.755 ± 0.97
55 | SGPHGRFDARSMLAIL | -0.773 ± 0.64
56 | SGSRGMFSKCVDK | 1.86 ± 0.1
57 | SGTDLRISNHAT | inactive
58 | SGVSVVEGYHRSRVACRSVM | -0.158 ± 0.52
59 | SGVVE | -0.433 ± 0.39
60 | SGYDDFWMTWTAKRVWHRAR | -0.436 ± 0.64
61 | SHCYSLGMLKVWLGQIKTFG | 1.8 ± 0.27
62 | SHELVKHGYKY | -0.436 ± 0.47
63 | SHGNLYGHHERLNSTRNPES | -1.14 ± 0.9
64 | SHIGIFEGFYVYLPYDCITM | inactive
65 | SHIMRRFLWVELAQ | -1.18 ± 1.1
66 | SHPNRTCKWLHSSVLRTPVL | 0.313 ± 0.49
67 | SHQSDGNWQMVYWCLLVRFT | -0.709 ± 0.56
68 | SHTYG | 0.06 ± 0.59
69 | SIASIIRRFNWDTK | 3.87 ± 0.095
70 | SICFYSLNSTPSLVGSWWGG | 1.3 ± 0.85
71 | SICSFLFR | 3.69 ± 0.093
72 | SIDCLCYYAPRLFRMHVELT | -0.656 ± 0.89
73 | SIFVFRLYFLYGLV | 0.606 ± 0.44
74 | SIGRLIPYFNQTPFCIS | -0.338 ± 0.23
75 | SILMIMMTLSSVQRLMLTGS | -0.161 ± 0.71

Row | Substance | amyloid nucleation score
76 | SIMPWNLSVRSMWRFWMNLR | inactive
77 | SIPRGFLLVLLVDNPTIRLQ | -0.358 ± 0.32
78 | SIQNPLNLVDNLPTT | -0.114 ± 0.21
79 | SIRLYETHSLT | 0.885 ± 0.14
80 | SISVNTFLRPQLRWM | 6.509 ± 0.061
81 | SITADLGHNSVALGVALLVI | -0.057 ± 1.7
82 | SIYDARRMVRVHTFHEGLL | -0.577 ± 1.4
83 | SIYHYCRDIRDCRMSRLELG | 0.572 ± 0.33
84 | SIYIVNSLALVGMGLMSNYG | 2.81 ± 0.23
85 | SKAKYGESSVWRVGLMGCF | -1.06 ± 0.83
86 | SKCLMNS | -1.26 ± 1.7
87 | SKFSISRTHNSHLSYSGLGG | 0.056 ± 0.5
88 | SKGFDDESTAGSFFKLMLLY | -1.9 ± 2.4
89 | SKRLLQL | -0.665 ± 0.87
90 | SKSSRTFLVFSLVWVYNLLM | 1.73 ± 0.19
91 | SKSYLVFDNISRRH | -1.11 ± 0.7
92 | SKTGRGTLVMEVSRCEVYDF | 0.027 ± 1.7
93 | SKVNISSYNSCFVRKGCQCR | 6.328 ± 0.046
94 | SLCTFLGFWGHVFSLRVNRL | -0.156 ± 1.1
95 | SLDRYIREHK | 0.635 ± 0.84
96 | SLDYLIFPVLDDGKKYMFVM | 1.33 ± 0.46
97 | SLESS | 0.642 ± 0.62
98 | SLFHLNFTIRWVDHAADSLV | 1.98 ± 0.56
99 | SLGVYGQGSGWMLVVNVWEV | 1.97 ± 0.24
100 | SLIRIVSS | 0.372 ± 0.52

Row | Substance | amyloid nucleation score
101 | SLKVTAPTQMGQCVVGGVYH | -0.279 ± 0.88
102 | SLNFPLLSQPAPIFVLSDKG | 0.974 ± 0.76
103 | SLPFVTS | -0.319 ± 0.71
104 | SLQHGYVVYVIVFLDATSNT | -0.186 ± 0.86
105 | SLRCQFTSLLSMVCGCSLYG | 0.807 ± 0.93
106 | SLRFQSYRAWSMGWKLDDSC | 0.821 ± 1.1
107 | SLRITLVWGRMQCGPESVCR | 0.745 ± 0.24
108 | SLRMLCRLPSRKDRSWTDML | 0.6 ± 0.32
109 | SLSAPLNTLVFVVYIQWWEM | 0.321 ± 0.71
110 | SLSWEAYRSLLS | 1.1 ± 0.23
111 | SLSYFSSFI | inactive
112 | SLVMKVPLFECVCIGMCGRA | 0.448 ± 0.52
113 | SLVSGSVGCLGRYQFRESKP | 0.422 ± 0.45
114 | SLWIKQLRERVANFLAGFEG | inactive
115 | SLWITFLPLIGLSAVRRRVR | -1.24 ± 1.4
116 | SLWVWRNAWLVHLYRL | -0.206 ± 0.54
117 | SLYKMVMCNGYSCLLLYLVC | 0.353 ± 0.97
118 | SLYYEG | 0.867 ± 0.45
119 | SLYYGGLQER | -0.02 ± 0.29
120 | SMAGEFWSVLFFCESIWGGD | 4.83 ± 0.12
121 | SMCTCLRMGRLPIQVFSWSG | -1.52 ± 2.7
122 | SMGRLP | -1.05 ± 1.5
123 | SMGVMSCNMSWSSAWCVMCV | 0.289 ± 0.42
124 | SMGWYGYFLYLNCDDSFPYW | 3.79 ± 0.069
125 | SMLDNDTSNMLEMPIGMYVA | inactive

Row | Substance | amyloid nucleation score
126 | SMRIFMMLQWYRGSNLCFFH | 0.537 ± 1.1
127 | SMRRAI | -0.263 ± 1.4
128 | SMSCVVHRGSSASCWMFYRN | 0.784 ± 0.37
129 | SMSHVWL | -1.25 ± 1.5
130 | SMVLFGRISWIGEVLLL | 4.99 ± 0.089
131 | SMVLKTTDAGDNLHSKCNML | -1.09 ± 0.68
132 | SMYFQRP | 0.53 ± 0.26
133 | SMYVYDRGTGILLSCGVYFF | 1.82 ± 0.11
134 | SNALVFNFSRHAFVNIVFVY | 4.04 ± 0.13
135 | SNATVGQPRYNVRTGKAGCE | 0.351 ± 0.48
136 | SNEVSGLVCQLTNVVYLLGL | 4.89 ± 0.052
137 | SNFGCFYCLLIPRNKKLGLG | 1.67 ± 0.47
138 | SNFGIIYM | inactive
139 | SNLLTCPKYFVVTFFCL | 0.211 ± 0.26
140 | SNMSHLNRG | 0.649 ± 0.75
141 | SNNDFLTSPAFGLLTG | 0.066 ± 0.45
142 | SNSFALALLPGGT | 0.275 ± 0.75
143 | SNSGIKGFGGMIPRV | 3.92 ± 0.1
144 | SNSNTIP | -0.676 ± 0.98
145 | SNVVNFDNNEDYLDTCRYLI | 0.734 ± 0.97
146 | SNYFVSVDRGIWSCCYMCSF | 7.474 ± 0.063
147 | SNYYWVAWGDSPLQVHP | 0.626 ± 0.81
148 | SPFASVEEFELL | 0.124 ± 0.33
149 | SPIVGTLFYFMLWNMSAHTR | 1.96 ± 0.26
150 | SPLMRFFSTDSGARIFLNMS | -0.388 ± 0.52

Row | Substance | amyloid nucleation score
151 | SPLSYAI | 1.36 ± 0.58
152 | SPPSSNIFPCI | 0.052 ± 0.69
153 | SQFLLYSPINFLCFAENHNG | 6.36 ± 0.078
154 | SQLNCIDRTMGYDDRMEIRS | 0.014 ± 0.42
155 | SQQVHISNVHVLYLRWWTGC | 0.696 ± 0.74
156 | SRATVSFVSLGNLTFGTILC | 1.72 ± 0.36
157 | SRFNSWLCCEND | 1.76 ± 0.35
158 | SRGFDHITFF | -0.677 ± 1.2
159 | SRGITRQFESHTCAEHRCGS | -0.252 ± 0.97
160 | SRHFFTAKCQRPRFLWKSDR | -0.172 ± 1.2
161 | SRIFRKLHYSTWIQMRGLCP | -0.431 ± 0.28
162 | SRKVLTPVSPVSVRAARVGH | -0.979 ± 1.9
163 | SRLEKKGNWPVYSTQAVWMT | -0.421 ± 0.42
164 | SRLIY | -0.894 ± 0.4
165 | SRLMV | 0.547 ± 0.71
166 | SRMLAVKFKLVVTNCCVKLI | -0.598 ± 1.4
167 | SRPHTVWDMC | 0.245 ± 0.32
168 | SRPYLLRLR | 0.455 ± 0.57
169 | SRRCLLKNISSPCF | -1.82 ± 0.87
170 | SRVCYNRWLKLWDSDRPVIG | -0.001 ± 0.36
171 | SRVRHFVSFFTV | -0.333 ± 0.58
172 | SRVSFLNFWN | 4.27 ± 0.15
173 | SSAVD | 0.329 ± 1.1
174 | SSCKWSSKPAHEFQVMTAPT | -0.007 ± 0.65
175 | SSCYLCLVVYSFTS | 5.3 ± 0.072
